Assay results published in US8143366B2, “Aryl carbamate oligomers for hydrolyzable prodrugs and prodrugs comprising same” (priority 2003, dated 2012).
Like-named read-outs stand apart in the source and are kept apart here.

Assays:
[1] = Ex vivo hydrolysis in rat plasma at 37° C.; assay type: in vitro ADME; conditions: Table 2 conjugates, average of three experiments ± s. d.
Method: Experiments using rat plasma were conducted in similar fashion to the esterase hydrolysis experiments. A stock, or reference, solution of each conjugate was made that was ˜15 mg/mL in DMSO. Two hundred microliters of stock were added to 800 μL 50 mM PBS buffer. Fifty microliters of this latter solution were added to 950 μL rat plasma and placed at 37° C. in a reciprocal waterbath shaker. At the appropriate time intervals, a 50 μl, aliquot was taken, added to 100 μl, ACN, and vigorously vortexed for 1 minute. The sample was centrifuged at 10,000 rpm for 5 minutes and 50 μL, of supernatant was then injected for HPLC analysis. A calibration curve for measuring the concentration of each conjugate was made.

[2] = molecular target: T1, rabbit liver carboxylesterase (Oryctolagus cuniculus, UniProt P12337); assay: in vitro; conditions: purified rabbit liver carboxylesterase in PBS buffer, pH 7.4
T1 sequence (P12337 19-565): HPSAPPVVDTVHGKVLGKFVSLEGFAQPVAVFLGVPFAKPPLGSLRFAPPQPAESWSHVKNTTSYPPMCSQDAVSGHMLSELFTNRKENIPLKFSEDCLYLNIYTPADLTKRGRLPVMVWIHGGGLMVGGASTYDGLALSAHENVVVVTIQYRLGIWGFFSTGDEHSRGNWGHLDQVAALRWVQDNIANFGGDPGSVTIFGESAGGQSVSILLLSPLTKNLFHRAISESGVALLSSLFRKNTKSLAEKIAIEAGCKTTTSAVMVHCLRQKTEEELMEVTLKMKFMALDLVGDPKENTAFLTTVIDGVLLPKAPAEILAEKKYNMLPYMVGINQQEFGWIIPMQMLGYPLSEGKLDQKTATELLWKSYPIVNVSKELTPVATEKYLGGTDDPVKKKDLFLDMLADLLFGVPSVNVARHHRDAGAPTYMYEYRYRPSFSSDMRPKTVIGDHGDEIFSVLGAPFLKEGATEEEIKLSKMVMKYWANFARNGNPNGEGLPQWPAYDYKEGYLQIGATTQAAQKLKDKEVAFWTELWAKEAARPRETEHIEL
Method: (§1) Stock, or reference, solutions of hydrolyzable conjugates were first prepared at ˜2 mg/mL in DMSO. Working solutions of the hydrolyzable conjugates were then prepared in triplicate (working solutions A). Fifty microliters of stock conjugate were added to 5.0 mL 50 mM PBS buffer.
(§2) A stock solution of carboxylesterase was prepared by adding ˜2 mg esterase to 2.0 mL 50 mM PBS buffer. A working solution of carboxylesterase was prepared by diluting 50 uL of the stock solution with 5.0 mL 50 mM PBS buffer (working solution B).
(§3) Five hundred microliters of working solution B were then added to each working solution A (0.5 units enzyme and between 10-20 μM conjugate). The reaction mixtures were immediately vortexed and sampled for a time=0 analysis. The reaction solutions were incubated at 37° C. in a reciprocal waterbath shaker. At appropriate time intervals during incubation, 75 μL aliquots were taken and injected directly on HPLC for hydrolysis rate data. With each experiment, a new calibration curve for the particular conjugate was made.
(§4) The pseudo first-order rate constant, or “k”, is obtained from the slope of the natural log of the concentration of the conjugate versus time curve. The half-life is then calculated from k.

[3] = molecular target: T1, rabbit liver carboxylesterase; conditions: pH 7.4
Method: as §1, §2, §3, §4

Row | Compound | half-life at […] [1] [h] | half-life [2] [h] | t1/2 [1] | half-life [1] [h] | half-life [3] [h]
1 | CCCCCCCCCCCCOCCOCCOCCOCCOCCOCCOCCOCCOc1ccc(OC(=O)N[C@@H](Cc2ccc(O)cc2)C(=O)NCC(=O)NCC(=O)N[C@@H](Cc2ccccc2)C(=O)N[C@@H](CC(C)C)C(=O)O)cc1 | 2.33 ± 0.0723 | 10.4 ± 0.9 | – | – | –
2 | COCCOCCOCCOCCNC(=O)c1cc(OC(=O)N[C@@H](Cc2ccc(O)cc2)C(=O)NCC(=O)NCC(=O)N[C@@H](Cc2ccccc2)C(=O)N[C@@H](CC(C)C)C(=O)O)cc(C(=O)NCCOCCOCCOCCOC)c1 | – | 0.03 ± 0.12 | ~Immediate Hydrolysis | – | –
3 | COCCOCCOCCOCCOCc1ccc(OC(=O)N[C@@H](Cc2ccc(O)cc2)C(=O)NCC(=O)NCC(=O)N[C@@H](Cc2ccccc2)C(=O)N[C@@H](CC(C)C)C(=O)O)cc1 | 0.027 ± 0.00733 | 1.4 ± 0.1 | – | – | –
4 | COCCOCCOCCOCCOC(=O)NC(Cc1ccc(OC(=O)N[C@@H](Cc2ccc(O)cc2)C(=O)NCC(=O)NCC(=O)N[C@@H](Cc2ccccc2)C(=O)N[C@@H](CC(C)C)C(=O)O)cc1)C(=O)OC (some centres unmarked) | 0.251 ± 0.0772 | 1.3 ± 0.04 | – | – | –
5 | COCCOCCOCCOCCOc1ccc(OC(=O)N[C@@H](Cc2ccc(O)cc2)C(=O)NCC(=O)NCC(=O)N[C@@H](Cc2ccccc2)C(=O)N[C@@H](CC(C)C)C(=O)O)cc1OCCOC | – | – | – | 0.354 ± 0.0667 | 2.7 ± 0.2
6 | COCCOCCOCCOCCNC(=O)c1ccc(OC(=O)N[C@@H](Cc2ccc(O)cc2)C(=O)NCC(=O)NCC(=O)N[C@@H](Cc2ccccc2)C(=O)N[C@@H](CC(C)C)C(=O)O)cc1 | – | 0.04 ± 0.17 | ~Immediate Hydrolysis | – | –
7 | COCCOCCOCCOCCOc1ccc(OC(=O)N[C@@H](Cc2ccc(O)cc2)C(=O)NCC(=O)NCC(=O)N[C@@H](Cc2ccccc2)C(=O)N[C@@H](CC(C)C)C(=O)O)cc1 | 0.912 ± 0.0723 | 6.9 ± 0.1 | – | – | –
